Laboratory results from US20140328838A1 (NVIP, published 2014).

Legend:
human TNF = target: T1, human TNF (human, UniProt P01375 77-233); assay: ELISA (FIG. 16 panel B)
T1 construct: also called huTNF

canine TNF alpha [1] = target: T2, canine TNF alpha (canine, UniProt P51742 77-233); assay: ELISA, canine TNF alpha coated; antibody 5 to 0.05 µg/ml (FIG. 14B)
T2 construct: Coated at 5 ug/ml in the ELISA; Used at 1 ng/mL in the reporter assay

canine TNF alpha [2] = target: T2, canine TNF alpha; assay: ELISA (FIG. 16 panel C)

T2 sequence (P51742 77-233 limits assumed): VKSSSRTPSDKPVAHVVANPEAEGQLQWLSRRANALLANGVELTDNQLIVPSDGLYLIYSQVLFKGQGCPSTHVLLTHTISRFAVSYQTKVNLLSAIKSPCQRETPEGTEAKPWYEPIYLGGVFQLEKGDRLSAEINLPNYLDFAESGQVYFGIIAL
T1 sequence (P01375 77-233 limits assumed): as the sequence (P51742 77-233 limits assumed) above, with K2R, E21Q, S30N, T44R, I49V, D53E, F83I, T109A, L138R, N140D counted along it

B1: caninised anti-TNF monoclonal antibody based on D2E7 (ca-HCB+ca-kLC) (antibody, V domains shown)
VH: not shown
VL: DIVMTQSPASLSLSQEEKVTITCRASQGIRNYLAWYQQKPGQAPKLLIYAASTLQSGVPSRFSGSGSGTDFTLTISSLEPEDVAVYYCQRYNRAPYTFGQGTKVEIKR
notes: also called caninised (Ca) D2E7 based MAb; canine PETised D2E7
Q: Does B1 bind (human TNF)?
A: binds

Q: Does B1 bind (canine TNF alpha [1])?
A: binds

B2: caninised anti-huTNF MAb 148 (antibody, V domains shown)
VH: EVQLVESGGGVVQPGGSLRLSCAASGFIFSSYAMRWVRQAPGKGLEWVAFMSYDGSNKKYADSVKGRFTISRDNSKNTLYLQMNSLRAEDTAVYYCARDRGIAAGGNYYYYGMDVWGQGTSVTVSS
VL: EIVMTQSPASLSLSPGEKATISCRASQSVYSYLAWYQQKPGQAPRLLIYDASNRATGVPSRFSGSGSGTDFTLTISSLEPEDVAVYYCQQPSNWPPFTFGPGTKVDIKR
notes: Expressed in CHO cells and purified by Protein A chromatography
Q: Which results are given for B2?
A: binding result (human TNF): binds; binding result (canine TNF alpha [2]): no binding
